Measured values taken from US20200024330A1.

B1: PGT-128 (antibody, V domains shown)
VH: QPQLQESGPTLVEASETLSLTCAVSGDSTAACNSFWGWVRQPPGKGLEWVGSLSHCASYWNRGWTYHNPSLKSRLTLALDTPKNLVFLKLNSVTAADTATYYCARFGGEVLRYTDWPKPAWVDLWGRGTLVTVSS
VL: QSALTQPPSASGSPGQSITISCTGTSNNFVSWYQQHAGKAPKLVIYDVNKRPSGVPDRFSGSKSGNTASLTVSGLQTDDEAVYYCGSLVGNWDVIFGGGTKLTVL
B2: PGT-131 (antibody, V domains shown)
VH: QVQLQESGPGLVKPSETLSLTCTVSGDSINTGHHYWGWVRQVPGKGPEWIAHIHYNTAVLHNPALKSRVTISIFTLKNLITLSLSNVTAADTAVYFCVRSGGDILYYIEWQKPHWFYPWGPGILVTVSS
VL: QSALTQPPSASGSLGQSLTISCSGTGSDIGSWNFVSWYQQFPGRAPNLIIFEVNRRRSGVPDRFSGSKSGNTASLTVSGLRSEDEAEYFCSSLSGRWDIVFGGGTKVTVL
B3: PGT-135 (antibody, V domains shown)
VH: QLQMQESGPGLVKPSETLSLSCTVSGDSIRGGEWGDKDYHWGWVRHSAGKGLEWIGSIHWRGTTHYKESLRRRVSMSIDTSRNWFSLRLASVTAADTAVYFCARHRHHDVFMLVPIAGWFDVWGPGVQVTVSS
VL: EIVMTQSPDTLSVSPGETVTLSCRASQNINKNLAWYQYKPGQSPRLVIFETYSKIAAFPARFVASGSGTEFTLTINNMQSEDVAVYYCQQYEEWPRTFGQGTKVDIK

What was measured:
Assay in all cases: cell-based or functional assay
[1] = biological target: Env of all HIV-1 pseudoviruses of the cross-clade 162-pseudovirus panel (n = 162)
[2] = biological target: Env of the clade C HIV-1 pseudoviruses of the cross-clade 162-pseudovirus panel (n = 27)
[3] = biological target: Env of the clade G HIV-1 pseudoviruses of the cross-clade 162-pseudovirus panel (n = 15)
[4] = biological target: HIV-1 Env of isolate 92TH021 (HIV-1)
[5] = biological target: HIV-1 Env of isolate JR-CSF (HIV-1) (UniProt P20871)
[6] = biological target: HIV-1 JR-CSF Env D417A (HIV-1 (isolate JR-CSF)) (UniProt P20871)
[7] = biological target: HIV-1 JR-CSF Env F210A (HIV-1 JR-CSF) (UniProt P20871)
[8] = biological target: HIV-1 JR-CSF Env F317A (HIV-1 isolate JR-CSF) (UniProt P20871)
[9] = biological target: HIV-1 JR-CSF Env I309A (HIV-1 JR-CSF) (UniProt P20871)
[10] = biological target: HIV-1 JR-CSF Env I326A (HIV-1 isolate JR-CSF) (UniProt P20871)
[11] = biological target: HIV-1 JR-CSF Env I420A (HIV-1 (isolate JR-CSF)) (UniProt P20871)
[12] = biological target: HIV-1 JR-CSF Env K305A (HIV-1 JR-CSF) (UniProt P20871)
[13] = biological target: HIV-1 JR-CSF Env K343A (HIV-1 isolate JR-CSF) (UniProt P20871)
[14] = biological target: HIV-1 JR-CSF Env K421A (HIV-1 (isolate JR-CSF)) (UniProt P20871)
[15] = biological target: HIV-1 JR-CSF Env N241A (HIV-1 JR-CSF) (UniProt P20871)
[16] = biological target: HIV-1 JR-CSF Env N276A (HIV-1 JR-CSF) (UniProt P20871)
[17] = biological target: HIV-1 JR-CSF Env N301A (HIV-1 JR-CSF) (UniProt P20871)
[18] = biological target: HIV-1 JR-CSF Env N302A (HIV-1 JR-CSF) (UniProt P20871)
[19] = biological target: HIV-1 JR-CSF Env N332A (HIV-1 isolate JR-CSF) (UniProt P20871)
[20] = biological target: HIV-1 JR-CSF Env N355A (HIV-1 isolate JR-CSF) (UniProt P20871)
[21] = biological target: HIV-1 JR-CSF Env N386A (HIV-1 isolate JR-CSF) (UniProt P20871)
[22] = biological target: HIV-1 JR-CSF Env N392Q (HIV-1 (isolate JR-CSF)) (UniProt P20871)
[23] = biological target: HIV-1 JR-CSF Env N396A (HIV-1 (isolate JR-CSF)) (UniProt P20871)
[24] = biological target: HIV-1 JR-CSF Env P299A (HIV-1 JR-CSF) (UniProt P20871)
[25] = biological target: HIV-1 JR-CSF Env Q422A (HIV-1 (isolate JR-CSF)) (UniProt P20871)
[26] = biological target: HIV-1 JR-CSF Env R304A (HIV-1 JR-CSF) (UniProt P20871)
[27] = biological target: HIV-1 JR-CSF Env R350A (HIV-1 isolate JR-CSF) (UniProt P20871)
[28] = biological target: HIV-1 JR-CSF Env S393A (HIV-1 (isolate JR-CSF)) (UniProt P20871)
[29] = biological target: HIV-1 JR-CSF Env T341A (HIV-1 isolate JR-CSF) (UniProt P20871)
[30] = biological target: HIV-1 JR-CSF Env T394A (HIV-1 (isolate JR-CSF)) (UniProt P20871)
[31] = biological target: HIV-1 JR-CSF Env W395A (HIV-1 (isolate JR-CSF)) (UniProt P20871)
[32] = biological target: HIV-1 94UG103 envelope glycoprotein (Env) (HIV-1)
[33] = biological target: HIV-1 JR-CSF Env G324A (HIV-1 isolate JR-CSF) (UniProt P20871)
[34] = biological target: HIV-1 JRFL envelope glycoprotein (Env) (HIV-1)
[35] = biological target: HIV-1 MGRM-C-027 envelope glycoprotein (Env) (HIV-1)
[36] = biological target: HIV-1 MGRM-C-028 envelope glycoprotein (Env) (HIV-1)

Binder	Median IC50 against viruses neutralized with an IC50 <50 µg/ml [1] [µg/mL]	Median IC50 against viruses neutralized with an IC50 <50 µg/ml [2] [µg/mL]	Median IC50 against viruses neutralized with an IC50 <50 µg/ml [3] [µg/mL]	Fold IC50 increase relative to wild-type [6] [fold]	Fold IC50 increase relative to wild-type [7] [fold]	Fold IC50 increase relative to wild-type [8] [fold]	Fold IC50 increase relative to wild-type [9] [fold]	Fold IC50 increase relative to wild-type [10] [fold]	Fold IC50 increase relative to wild-type [11] [fold]	Fold IC50 increase relative to wild-type [13] [fold]	Fold IC50 increase relative to wild-type [14] [fold]	Fold IC50 increase relative to wild-type [15] [fold]	Fold IC50 increase relative to wild-type [16] [fold]	Fold IC50 increase relative to wild-type [17] [fold]	Fold IC50 increase relative to wild-type [18] [fold]	Fold IC50 increase relative to wild-type [19] [fold]	Fold IC50 increase relative to wild-type [20] [fold]	Fold IC50 increase relative to wild-type [21] [fold]	Fold IC50 increase relative to wild-type [22] [fold]	Fold IC50 increase relative to wild-type [23] [fold]	other results
B1	0.07	0.04	0.04	0.5	0.8	0.8	2.8	1.6	0.8	1	2	0.7	0.6	10.7	1.5	1.4	0.7	1.1	0.9	0.9	Polyclonal Transfectant Neutralization Index (well 5114 A19) [4]: 10; Primary Neutralization Index (B cell culture well 5114 A19) [4]: 6.6; Polyclonal Transfectant Neutralization Index (well 5114 A19) [5]: 136; Primary Neutralization Index (B cell culture well 5114 A19) [5]: 77.5; Fold IC50 increase relative to wild-type [12]: 1.8 fold; Fold IC50 increase relative to wild-type [24]: 1.2 fold; Fold IC50 increase relative to wild-type [25]: 0.2 fold; Fold IC50 increase relative to wild-type [26]: 0.7 fold; Fold IC50 increase relative to wild-type [27]: 1 fold; Fold IC50 increase relative to wild-type [28]: 1.4 fold; Fold IC50 increase relative to wild-type [29]: 1.3 fold; Fold IC50 increase relative to wild-type [30]: 3 fold; Fold IC50 increase relative to wild-type [31]: 0.8 fold
B2	0.52	0.78	3.54	1	1	96	8.8	1.7	153	1.1	11	0.7	0.8	> 170	1	0.5	2.3	1.1	0.4	0.9	Primary Neutralization Index (B cell culture well 5136 H1) [4]: 354; Primary Neutralization Index (B cell culture well 5136 H1) [5]: 6.2; Fold IC50 increase relative to wild-type [24]: 2 fold; Fold IC50 increase relative to wild-type [25]: 1.9 fold; Fold IC50 increase relative to wild-type [26]: 1.5 fold; Fold IC50 increase relative to wild-type [27]: 1.3 fold; Fold IC50 increase relative to wild-type [28]: 1.1 fold; Fold IC50 increase relative to wild-type [29]: 1.3 fold; Fold IC50 increase relative to wild-type [30]: 0.9 fold; Fold IC50 increase relative to wild-type [31]: 0.5 fold
B3	0.17	0.05	0.14	5	1.3	0.5	0.3	1.2	1.4	1.1	0.3	0.1	2.5	0.5	0.8	> 250	0.8	0.3	> 250	1	IC50 neutralization [32]: > 10 µg/mL; Primary Neutralization Index (B cell culture well 5343 B8) [5]: 1.8; Primary Neutralization Index (B cell culture well 5344 E16) [5]: 1.5; Fold IC50 increase relative to wild-type [33]: 0.4 fold; Fold IC50 increase relative to wild-type [12]: 0.2 fold; Fold IC50 increase relative to wild-type [24]: 0.36 fold; Fold IC50 increase relative to wild-type [25]: 0.8 fold; Fold IC50 increase relative to wild-type [26]: 0.7 fold; Fold IC50 increase relative to wild-type [27]: 0.9 fold; Fold IC50 increase relative to wild-type [28]: 0.9 fold; Fold IC50 increase relative to wild-type [29]: 0.6 fold; Fold IC50 increase relative to wild-type [30]: > 75 fold; Fold IC50 increase relative to wild-type [31]: 0.6 fold; IC50 neutralization [34]: > 10 µg/mL; IC50 neutralization [35]: > 10 µg/mL; IC50 neutralization [36]: 2.16 µg/mL
